Measurements published in US20260176378A1 (DYAX, published 2026).

target: T1, human plasma kallikrein (human, UniProt P03952 20-390; P03952 391-638); assay: ELISA, biotinylated pKal signal over streptavidin background
T1 construct: two disulfide-linked chains; NP_000883.2; also called pKal; hpKal
T1 sequence (P03952 20-390 limits assumed, chain 1 of 2): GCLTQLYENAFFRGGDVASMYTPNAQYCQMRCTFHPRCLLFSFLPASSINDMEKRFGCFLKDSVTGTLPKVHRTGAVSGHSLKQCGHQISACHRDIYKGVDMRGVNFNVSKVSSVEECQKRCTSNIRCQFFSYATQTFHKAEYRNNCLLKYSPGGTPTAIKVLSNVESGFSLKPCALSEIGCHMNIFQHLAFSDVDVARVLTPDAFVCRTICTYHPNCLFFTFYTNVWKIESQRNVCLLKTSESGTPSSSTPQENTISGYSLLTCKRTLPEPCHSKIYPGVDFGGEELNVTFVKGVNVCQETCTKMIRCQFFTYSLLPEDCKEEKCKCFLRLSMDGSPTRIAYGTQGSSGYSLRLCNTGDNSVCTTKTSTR
T1 sequence (P03952 391-638 limits assumed, chain 2 of 2): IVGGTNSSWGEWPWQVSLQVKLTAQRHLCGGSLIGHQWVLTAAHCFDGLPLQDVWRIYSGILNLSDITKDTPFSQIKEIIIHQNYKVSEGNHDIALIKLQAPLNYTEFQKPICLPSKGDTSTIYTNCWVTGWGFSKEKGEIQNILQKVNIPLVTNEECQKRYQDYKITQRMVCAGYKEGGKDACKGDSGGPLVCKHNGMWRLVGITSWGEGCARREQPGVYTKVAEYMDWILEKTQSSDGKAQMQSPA

Binder	ELISA (T/B)
M9-H02 (Fab, V domains shown) VH: EVQLLESGGGLVQPGGSLRLSCAASGFTFSAYMMIWVRQAPGKGLEWVSVIYPSGGVTMYADSVKGRFTISRDNSKNTLYLQMNSLRAEDTAVYYCARGTVGASDAFDIWGQGTMVTVSS VL: DIQMTQSPSSLSASVGDRVIITCRASRSIATYLNWYQQKPGKAPNLLIFGASTLQSGVPSRFSGSGSGTDFTLTISDLQPEDFATYYCQQSFSDPYTFGQGTNLEMK	3.5
M9-H03 (Fab, V domains shown) VH: EVQLLESGGGLVQPGGSLRLSCAASGFTFSWYSMGWVRQAPGKGLEWVSYIVPSGGYTMYADSVKGRFTISRDNSKNTLYLQMNSLRAEDTAVYYCARDPGVSYYYYGMDVWGQGTTVTVSS VL: QYELTQAPSVSVAPGQTASITCSGDKLGNRYTSWYQQKPGQSPVLVIFQDNKRPSGIPERFSGSNSGNTATLTISGTQAMDEADYYCQALDSNTYVFGTGTKVTVL	4.4
M9-H04 (Fab, V domains shown) VH: EVQLLESGGGLVQPGGSLRLSCAASGFTFSAYTMWWVRQAPGKGLEWVSSIWPSGGSTFYADSVKGRFTISRDNSKNTLYLQMNSLRAEDTAVYYCARTYDSSAGEVDYWGQGTLVTVSS VL: not shown	16.1
M10-A03 (Fab, V domains shown) VH: EVQLLESGGGLVQPGGSLRLSCAASGFTFSPYPMQWVRQAPGKGLEWVSSISSSGGMTEYADSVKGRFTISRDNSKNTLYLQMNSLRAEDTAVYYCARDDYGGKGGAFDIWGQGTMVTVSS VL: DIQMTQSPSSLSASVGDRVTITCRASQRISFYLNWFQQKPGKAPNLLIYGASSLQSGVPSRFSGSGSGTDFTLTISSLQPKDFGTYYCQQTFSTPNTFGQGTKLEIK	33.7
M10-A12 (Fab, V domains shown) VH: EVQLLESGGGLVQPGGSLRLSCAASGFTFSLYLMHWVRQAPGKGLEWVSSIYSSGGFTTYADSVKGRFTISRDNSKNTLYLQMNSLRAEDTAVYYCARDTDYGMDVWGQGTTVTVSS VL: DIQMTQSPLSLSAFVGDRVTITCRASRDISVYLNWYQLKSGKAPKLLIYGASSLQSGVPSRFSGSGSGTDFTLTITSLQPEDFATYYCQQSYSIPFTFGGGTKVETK	20.8
M10-B09 (Fab, V domains shown) VH: EVQLLESGGGLVQPGGSLRLSCAASGFTFSWYEMSWVRQAPGKGLEWVSRIWPSGGVTMYADSVKGRFTISRDNSKNTLYLQMNSLRAEDTAVYYCTRTSITTVGMDVWGQGTTVTVSS VL: DIQMTQSPSSLSASVGDGVTITCRASQSISTYLNWYQQRPGKAPKLLIYGASSLQSGVPSRFSGSGSGTDFTLTISSLQREDFATYYCQQSFSTPWTFGQGTRVEIK	14.1
M10-C11 (Fab, V domains shown) VH: EVQLLESGGGLVQPGGSLRLSCAASGFTFSMYPMMWVRQAPGKGLEWVSYISPSGGMTDYADSVKGRFTISRDNSKNTLYLQMNSLRAEDMAVYYCARVAGSSDAFDIWGQGTMVTVSS VL: DIQMTQSPSSLSASVGDRVTITCRASQSISIYLNWYQQKPEKAPKLLIFAASTLQSGVPSRFSGSGSGTDFTLTISNLQPEDFATYYCQQSHSIPPTFGLGTKVEVK	5.3
M10-D11 (Fab, V domains shown) VH: EVQLLESGGGLVQPGGSLRLSCAASGFTFSAYPMNWVRQAPGKGLEWVSRISSSGGNTSYADSVKGRFTISRDNSKNTLYLQMNSLRAEDTAVYYCALGYLGYWGQGTLVTVSS VL: not shown	6.4
M10-E06 (Fab, V domains shown) VH: EVQLLESGGGLVQPGGSLRLSCAASGFTFSLYRMFWVRQAPGKGLEWVSSIWSSGGPTMYADSVKGRFTISRDNSKNTLYLQMNSLRAEDTAVYYCAREYPSTYYFDYWGQGTLVTVSS VL: DIQMTQSPSSLSASVGDRVTITCRASQSISTYLNWYQQKPGKAPKLLIYGASSLQSGVPSRFSGSGSGTDFTLTISSLQPEDFTIYYCQQSYSDPYTFGQGTKLDIK	32.8
M10-F09 (Fab, V domains shown) VH: EVQLLESGGGLVQPGGSLRLSCAASGFTFSNYDMMWVRQAPGKGLEWVSYISPSGGFTRYADSVKGRFTISRDNSKNTLYLQMNSLRAEDTATYYCAKDIYYYNWGPSHYFDSWGQGTLVTVSS VL: DIQMTQSPSSLSASVGDRVTITCRASQTIDDDLIWYQQKPGRAPKLLIYAASSLQSGVPSRFSGSGSGTDFTLTITSLQPEDFATYYCQQSYNIPRTFGQGTKLESK	4.8
M10-G09 (Fab, V domains shown) VH: EVQLLESGGGLVQPGGSLRLSCAASGFTFSQYGMQWVRQAPGKGLEWVSSIRSSGGATRYADSVKGRFTISRDNSKNTLYLQMNSLRAEDTAVYYCARDGYYDSSGYPDYWGQGTLVTVSS VL: DIQMTQSPSSLSASVGDSVTITCRASQSISGYINWYQQKAGKAPKLLIYAASSLQSGVPSRFSGSGSGTHFTLTISSLQPEDFATYYCQQYVSYPFTFGPGTKVDIK	7.1
M11-A10 (Fab, V domains shown) VH: EVQLLESGGGLVQPGGSLRLSCAASGFTFSNYWMMWVRQAPGKGLEWVSGIGSSGGFTSYADSVKGRFTISRDNSKNTLYLQMNSLRAEDTAVYYCAKGSYSDYGVFESWGQGTLVTVSS VL: DIQMTQSPSSLSASVGDRVAITCRASQSIDTYLNWYQQKPGKAPKLLIYDASNLEIGVPSRFSGSGSGTDFTFIINSLQPEDVATYYCQHYLYAPYSFGQGTKLEIK	25
M11-E01 (Fab, V domains shown) VH: EVQLLESGGGLVQPGGSLRLSCAASGFTFSTYEMYWVRQAPGKGLEWVSGIGSSGGMTMYADSVKGRFTISRDNSKNTLYLQMNSLRAEDTAMYYCAREQPGIAALQFWGQGTLVTVSS VL: not shown	11.7
M11-E04 (Fab, V domains shown) VH: EVQLLESGGGLVQPGGSLRLSCAASGFTFSMYHMNWVRQAPGKGLEWVSGIVSSGGVTFYADSVKGRFTISRDNSKNTLYLQMNSLRAEDTAVYYCARITTVTTGGAFDIWGQGTMVTVSS VL: DIQMTQSPSSLSASVGDRVTITCRASQSISIYLTWYQHRPGKAPNLLIYGAATLQTGVPSRFSGSGSGTDFTLTIRGLQPEDFATYYCQQTFSLPRTFGQGTKLEIK	43.2
M11-E05 (Fab, V domains shown) VH: EVQLLESGGGLVQPGGSLRLSCAASGFTFSWYTMGWVRQAPGKGLEWVSWIYFGGLTTYADSVKGRFTISRDNSKNTLYLQMNSLRAEDTAVYYCARLGGPLDAFDIWGQGTMVTVSS VL: DIQMTQSPSSLSASVGDTVTITCRTSQTINNYLNWYQQRPGEAPKVLIYATHTLESGVPSRFSGSGSGTDFTLTIGSLQPEDFATYYCQQSFAFPYTFGQGTKVEIT	41.4
M11-E06 (Fab, V domains shown) VH: EVQLLESGGGLVQPGGSLRLSCAASGFTFSQYAMHWVRQAPGKGLEWVSSIYPSGGFTLYADSVKGRFTISRDNSKNTLYLQMNSLRAEDTAMYYCARGGWLAGGELLNWGQGTLVTVSS VL: DIQMTQSPSSLSASIGDRVTISCRASRGIGTYLNWYQQHAGKAPKLLIRAASSLETGVPPRFSGSGSGTDFTLTISSLQSDDFATYYCQESFTNVYNFGQGTKLEIK	12.6
M11-G09 (Fab, V domains shown) VH: EVQLLESGGGLVQPGGSLRLSCAASGFTFSLYNMTWVRQAPGKGLEWVSYIYPSGGGTHYADSVKGRFTISRDNSKNTLYLQMNSLRAEDTAVYYCARDTGFWSADAFDIWGQGTMVTVSS VL: DIQMTQSPSSLSASVGDRVTITCRTSQGINHYLNWYQQKPGKAPKILVFAASELQTGVPSRFSGTGSGTSYTLTITSLQPEDVATYYCQQTYTSPYTFGQGTKLEVK	23.6
